Results: patent US20080058263A1 (published 2008)
Positions count from the first letter of the chain named.

T1: VEGFR-3-Fc (UniProt P35916 25-328)
T1 construct: domain: first three Ig domains; conditioned supernatant of 293T cells; also called VEGFR-3-Fc fusion protein; not shown: Fc fragment of the pIg vector
T1 sequence (looked up): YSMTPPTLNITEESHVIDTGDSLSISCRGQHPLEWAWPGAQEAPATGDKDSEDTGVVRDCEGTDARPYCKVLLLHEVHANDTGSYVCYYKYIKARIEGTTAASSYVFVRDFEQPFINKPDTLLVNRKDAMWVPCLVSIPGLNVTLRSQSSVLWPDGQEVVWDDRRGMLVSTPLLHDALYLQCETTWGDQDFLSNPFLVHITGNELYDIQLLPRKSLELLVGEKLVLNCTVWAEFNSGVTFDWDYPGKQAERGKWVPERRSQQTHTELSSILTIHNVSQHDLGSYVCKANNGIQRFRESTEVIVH

B1: 62-14 (ligand)
chain: GQNHHEVVKFMDVYQRSYCHPREVCIDVGKEFGVATNTFFKPPCVSVYRCGGCCNDEGLECMNTSTSYLSKTLFEITVPLSQGPKPVTISFANHTSCRCMSKLD
B2: 42-14 (ligand)
chain: B1 chain with G1A, Q2H, N3Y, H4N, H5T, V7I, V8L
B3: 62-16 (ligand)
chain: B1 chain with D56S, E60Q
B4: 64-14 (ligand)
chain: B1 chain with P43S, S46P, V47L, Y48M
B5: 63-14 (ligand)
chain: B1 chain with F32Y, G33P, V34D, A35E, T36I, N37E, T38Y, F39I
B6: 62-10 (ligand)
chain: B1 chain with A92L, N93Q, T95N, S96K, R98E, M100R, S101P, L103K
B7: 64-16 (ligand)
chain: B1 chain with P43S, S46P, V47L, Y48M, D56S, E60Q
B8: 44-14 (ligand)
chain: AHYNTEILKFMDVYQRSYCHPREVCIDVGKEFGVATNTFFKPSCVPLMRCGGCCNDEGLECMNTSTSYLSKTLFEITVPLSQGPKPVTISFANHTSCRCMSKLD
B9: 42-16 (ligand)
chain: B8 chain with S43P, P46S, L47V, M48Y, D56S, E60Q
B10: 62-12 (ligand)
chain: B1 chain with D56S, E60Q, A92L, N93Q, T95N, S96K, R98E, M100R, S101P, L103K
B11: 64-10 (ligand)
chain: GQNHHEVVKFMDVYQRSYCHPREVCIDVGKEFGVATNTFFKPSCVPLMRCGGCCNDEGLECMNTSTSYLSKTLFEITVPLSQGPKPVTISFLQHNKCECRPKKD
B12: 63-16 (ligand)
chain: B1 chain with F32Y, G33P, V34D, A35E, T36I, N37E, T38Y, F39I, D56S, E60Q
B13: 62-11 (ligand)
chain: GQNHHEVVKFMDVYQRSYCHPREVCIDVGKEFGVATNTFFKPPCVSVYRCGGCCNSEGLQCVPTEESNITMQIMRITVPLSQGPKPVTISFLQHNKCECRPKKD
B14: 13-8 (ligand)
chain: GQNHHEVVKFMDVYQRSYCHPIETLVDIFQEYPDEIEYIFKPPCVSVYRCGGCCNSEGLQCMNTSTSYLSKTLFEIKPHQGQHIGEMSFANHTSCRCMSKLD
B15: 43-8 (ligand)
chain: AHYNTEILKFMDVYQRSYCHPREVCIDVGKEYPDEIEYIFKPPCVSVYRCGGCCNSEGLQCMNTSTSYLSKTLFEIKPHQGQHIGEMSFANHTSCRCMSKLD
B16: 63-6 (ligand)
chain: B15 chain with A1G, H2Q, Y3N, N4H, T5H, I7V, L8V, S56D, Q60E
B17: 64-8 (ligand)
chain: GQNHHEVVKFMDVYQRSYCHPREVCIDVGKEFGVATNTFFKPSCVPLMRCGGCCNSEGLQCMNTSTSYLSKTLFEIKPHQGQHIGEMSFANHTSCRCMSKLD
B18: 43-6 (ligand)
chain: B15 chain with S56D, Q60E
B19: 62-6 (ligand)
chain: B17 chain with S43P, P46S, L47V, M48Y, S56D, Q60E
B20: 61-6 (ligand)
chain: B17 chain with F32Y, G33P, V34D, A35E, T36I, N37E, T38Y, F39I, S56D, Q60E
B21: 61-8 (ligand)
chain: B17 chain with F32Y, G33P, V34D, A35E, T36I, N37E, T38Y, F39I
B22: 61-4 (ligand)
chain: GQNHHEVVKFMDVYQRSYCHPREVCIDVGKEYPDEIEYIFKPSCVPLMRCGGCCNSEGLQCMNTSTSYLSKTLFEIKPHQGQHIGEMSFLQHNKCECRPKKD
B23: 62-8 (ligand)
chain: B17 chain with S43P, P46S, L47V, M48Y
B24: 61-13 (ligand)
chain: GQNHHEVVKFMDVYQRSYCHPREVCIDVGKEYPDEIEYIFKPSCVPLMRCGGCCNDEGLECVPTEESNITMQIMRITVPLSQGPKPVTISFANHTSCRCMSKLD
B25: 13-13 (ligand)
chain: GQNHHEVVKFMDVYQRSYCHPIETLVDIFQEYPDEIEYIFKPPCVSVYRCGGCCNDEGLECVPTEESNITMQIMRITVPLSQGPKPVTISFANHTSCRCMSKLD

molecular target: T2, VEGFR-1-Fc (UniProt P17948 27-338); test: receptor-Fc IP
T2 construct: domain: first three Ig domains; expressed in Drosophila S2 cells, purified on Protein A sepharose; also called VEGFR-1-Fc fusion protein; not shown: Fc fragment from the Signal-pIgPlus vector
In short: (§1)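 Binding of ligand from sample supernatant measured by pentahistidine-antibody immunoprecipitation. IP mix: PBS with 1.5% BSA, 0.06% Tween 20, 3 μg/ml heparin and 400 ng/ml fusion protein, added 1:2 to sample supernatant.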

T2 sequence (P17948 27-338): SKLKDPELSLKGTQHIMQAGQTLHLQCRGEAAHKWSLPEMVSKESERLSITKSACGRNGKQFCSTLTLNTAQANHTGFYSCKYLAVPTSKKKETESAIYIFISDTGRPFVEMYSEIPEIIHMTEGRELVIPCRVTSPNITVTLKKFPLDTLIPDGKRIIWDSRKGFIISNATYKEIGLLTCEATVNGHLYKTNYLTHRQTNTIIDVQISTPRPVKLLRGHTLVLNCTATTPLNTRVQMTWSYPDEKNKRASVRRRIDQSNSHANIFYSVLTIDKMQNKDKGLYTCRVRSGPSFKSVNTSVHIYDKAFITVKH

Row | binding result | Binder
1 | no binding | B1
2 | no binding | B2
3 | no binding | B3
4 | no binding | B4
5 | no binding | B5
6 | no binding | B6
7 | no binding | B7
8 | no binding | B8
9 | no binding | B9
10 | no binding | B10
11 | no binding | B11
12 | no binding | B12
13 | no binding | B13
14 | no binding | B14
15 | no binding | B15
16 | no binding | B16
17 | no binding | B17
18 | no binding | B18
19 | no binding | B19
20 | no binding | B20
21 | no binding | B21
22 | no binding | B22
23 | no binding | B23
24 | no binding | B24
25 | binds | B25

molecular target: T3, VEGFR-2-Fc (UniProt P35968 20-322); test: receptor-Fc IP
T3 construct: domain: first 3 Ig domains; conditioned supernatant of 293T cells; also called VEGFR-2-Fc fusion protein; not shown: Fc fragment of the pIg vector
In short: as §1

T3 sequence (P35968 20-322): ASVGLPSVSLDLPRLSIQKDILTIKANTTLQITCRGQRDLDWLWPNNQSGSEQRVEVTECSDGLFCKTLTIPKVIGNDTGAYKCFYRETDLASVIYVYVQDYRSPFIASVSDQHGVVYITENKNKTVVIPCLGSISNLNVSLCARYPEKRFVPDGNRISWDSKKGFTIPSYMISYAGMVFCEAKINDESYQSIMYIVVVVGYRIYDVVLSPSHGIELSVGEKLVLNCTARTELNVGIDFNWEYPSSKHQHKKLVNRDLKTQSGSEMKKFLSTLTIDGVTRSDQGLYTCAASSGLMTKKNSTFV

Row | binding result | Binder
26 | no binding | B1
27 | no binding | B2
28 | no binding | B3
29 | no binding | B4
30 | no binding | B5
31 | binds | B6
32 | no binding | B7
33 | no binding | B8
34 | no binding | B9
35 | no binding | B10
36 | no binding | B11
37 | no binding | B12
38 | binds | B13
39 | no binding | B14
40 | no binding | B15
41 | binds | B16
42 | no binding | B17
43 | no binding | B18
44 | no binding | B19
45 | no binding | B20
46 | no binding | B21
47 | no binding | B22
48 | binds | B23
49 | no binding | B24
50 | no binding | B25

molecular target: T1, VEGFR-3-Fc; test: receptor-Fc IP
In short: as §1

Row | binding result | Binder
51 | no binding | B1
52 | no binding | B2
53 | no binding | B3
54 | no binding | B4
55 | no binding | B5
56 | no binding | B6
57 | no binding | B7
58 | no binding | B8
59 | no binding | B9
60 | no binding | B10
61 | no binding | B11
62 | no binding | B12
63 | binds | B13
64 | no binding | B14
65 | no binding | B15
66 | no binding | B16
67 | no binding | B17
68 | no binding | B18
69 | no binding | B19
70 | no binding | B20
71 | no binding | B21
72 | no binding | B22
73 | no binding | B23
74 | no binding | B24
75 | no binding | B25
